In patent publication US20090221027A1 (BASF AG, priority 2005, published 2009):
Like-named read-outs stand apart in the source and are kept apart here.

B1: Cg1 MetY: C. glutamicum O-acetylhomoserine sulfhydrylase (protein, UniProt Q79VI4 1-437, looked up)
O-acetyl-L-homoserine …: MPKYDNSNADQWGFETRSIHAGQSVDAQTSARNLPIYQSTAFVFDSAEHAKQRFALEDLGPVYSRLTNPTVEALENRIASLEGGVHAVAFSSGQAATTNAILNLAGAGDHIVTSPRLYGGTETLFLITLNRLGIDVSFVENPDDPESWQAAVQPNTKAFFGETFANPQADVLDIPAVAEVAHRNSVPLIIDNTIATAALVRPLELGADVVVASLTKFYTGNGSGLGGVLIDGGKFDWTVEKDGKPVFPYFVTPDAAYHGLKYADLGAPAFGLKVRVGLLRDTGSTLSAFNAWAAVQGIDTLSLRLERHNENAIKVAEFLNNHEKVEKVNFAGLKDSPWYATKEKLGLKYTGSVLTFEIKGGKDEAWAFIDALKLHSNLANIGDVRSLVVHPATTTHSQSDEAGLARAGVTQSTVRLSVGIETIDDIIADLEGGFAAI
B2: Bsu MetI: Bacillus subtilis O-acetyl-homoserine sulfhydrylase with cystathionine-gamma-synthase activity, SEQ ID NO:2 (protein)
chain: MSQHVETKLAQIGNRSDEVTGTVSAPIYLSTAYRHRGIGESTGFDYVRTKNPTRQLVEDAIANLENGARGLAFSSGMAAIQTIMALFKSGDELIVSSDLYGGTYRLFENEWKKYGLTFHYDDFSDEDCLRSKITPNTKAVFVETPTNPLMQEADIEHIARITKEHGLLLIVDNTFYTPVLQRPLELGADIVIHSATKYLGGHNDLLAGLVVVKDERLGEEMFQHQNAIGAVLPPFDSWLLMRGMKTLSLRMRQHQANAQELAAFLEEQEEISDVLYPGKGGMLSFRLQKEEWVNPFLKALKTICFAESLGGVESFITYPATQTHMDIPEEIRIANGVCNRLLRFSVGIEHAEDLKEDLKQALCQVKEGAVSFE

Legend:
[1] = molecular target: C. glutamicum MetY enzyme (Corynebacterium glutamicum, UniProt Q79VI4); test: biochemical
Procedure: Cells were harvested and cell lysates from pellets were obtained using the Ribolyzer protocol and machine (Hybaid, UK). Cell extracts were centrifuged to obtain a soluble supernatant fraction of cytosolic protein. The method to determine the O-acetyl-homoserine sulfhydrylase activity in cell extracts was performed essentially as described in Yamagata, Methods in Enzymology, 1987, Vol. 143 pp 479-480. Cell extracts were added to a buffer of 100 mM KH2PO4 (pH 7.2) containing 5 mM O-acetyl-homoserine and 200 μM pyridoxal phosphate. […] The reaction was initiated by addition of Na-sulphide solution to a final concentration of 4 mM. After a 15 minute incubation at 30° C., the reaction was terminated and acidified by addition of 1/10 volume of 30% trichloroacetic acid. After centrifugation (5 minutes at 13,000 rpm) to remove precipitated protein, incubation at reduced atmospheric pressure in a Speed-Vac evaporator was performed to deplete residual H2S. The sulphide depleted solution was reacted with cyanide and nitroprusside as described in Yamagata supra. Absorption at 520 nm was determined and background corrected.

[2] = reported specific activity; Bsu MetI from T7 promoter in E. coli; cited from earlier work
[3] = H.-S. Lee, personal communication; cited from earlier work
[4] = Cystathionine γ-synthase activity in crude cell extracts; format: biochemical
[5] = Inhibition of the enzyme by methionine (Table 1); format: biochemical
[6] = reported specific activity; Bsu MetI from T7 promoter in E. coli; cited from earlier work; remark: listed apart in the source
[7] = O-acetyl-homoserine sulfhydrylase activity in crude cell extracts; format: biochemical
[8] = in C. glutamicum from P15, crude extracts
[9] = in E. coli from P15, crude extracts

| Molecule | IC50 [1] [mM] | O-Ac-Hse sulfhydrylase activity [2] [µmol/min/mg] | Inhibition by methionine [3] | Cystathionine γ-synthase activity [4, 8] [nmol/min] | Cystathionine γ-synthase activity [4, 9] [nmol/min] | Inhibition by methionine [5, 8] | Inhibition by methionine [5, 9] | Cystathionine γ-synthase activity [6] [µmol/min/mg] | O-Ac-Hse sulfhydrylase activity [7, 8] [nmol/min] | O-Ac-Hse sulfhydrylase activity [7, 9] [nmol/min] |
| --- | --- | --- | --- | --- | --- | --- | --- | --- | --- | --- |
| CSCC[C@H](N)C(=O)O [methionine, L-methionine] | ~5 | – | – | – | – | – | – | – | – | – |
| B1 | – | 6.0 | Yes | – | – | – | – | – | – | – |
| B2 | – | 7.0 | – | 30.2 | 1900 | No | No | 1.5 | 6.3 | 199 |
